Publication PMC13218038 (ACS Nano, 2026)

Biological target: the molecule itself
Test: SDS-PAGE of unboiled and boiled samples

B1: cholera toxin B-subunit (CTB) (natural protein)
chain: TPQNITDLCAEYHNTQIYTLNDKIFSYTESLAGKREMAIITFKNGAIFQVEVPGSQHIDSQKKAIERMKDTLRIAYLTEAKVEKLCVWNNKTPHAIAAISMAN
  stoichiometry N: 5
